# Measured values reported in US20070116673A1, “Method for activating T cell protein phosphatase and therapeutical methods based thereon” (Valtion Teknillinen Tutkimuskeskus, priority 2005, published 2007).
# Counter-ions that a name gives are not always drawn.
# How the values were obtained:
# TCPTP [1] = target: T1, TCPTP (Homo sapiens, UniProt P17706); experiment: Phosphatase assay with recombinant, purified TCPTP (diFMUP substrate); assay type: biochemical; design: For phosphatase assays with purified protein, full length TCPTP was incubated in phosphatase reaction buffer; GST (N); made in house; host or cells: E. coli BL21 pLysS; settings: FIG. 2B; for activation of TCPTP by small molecule compounds: preincubated with 0.2 μg/ml TCPTP 10 minutes RT, different concentrations
# T1 sequence (P17706 1-387 isoform P17706-2): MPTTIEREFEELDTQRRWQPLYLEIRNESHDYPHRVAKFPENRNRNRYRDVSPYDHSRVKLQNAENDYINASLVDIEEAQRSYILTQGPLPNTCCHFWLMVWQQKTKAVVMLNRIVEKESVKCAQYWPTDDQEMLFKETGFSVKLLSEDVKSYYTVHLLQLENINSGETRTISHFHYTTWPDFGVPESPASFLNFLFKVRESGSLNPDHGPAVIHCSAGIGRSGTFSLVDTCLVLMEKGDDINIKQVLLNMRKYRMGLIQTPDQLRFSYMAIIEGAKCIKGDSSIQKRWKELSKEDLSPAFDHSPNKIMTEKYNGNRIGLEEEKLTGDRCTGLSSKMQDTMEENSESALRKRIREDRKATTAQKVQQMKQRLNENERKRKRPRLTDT
# Method: Serum starved Hela cells were either left untreated on plastic, stimulated with 10% FBS for 30 min or detached and replated on collagen type I or poly-L-lysine (10 μg/ml, Sigma) coated tissue-culture plates for 1 h. When indicated cells were surface biotinylated as described^12. Cells were either lysed in Laemmli sample buffer and fractionated on SDS-PAGE for western blotting or lysed in lysis buffer and equal amounts of protein from each sample were precleared with protein G-Sepharose and subjected to immunoprecipitation. Antibodies (anti-TCPTP, Oncogene; anti-a1, anti-a5, anti-a6, all from Chemicon; anti-SHP-2, Santa Cruz) were incubated with protein G-Sepharose and immunoprecipitation was performed at 4° C. for 2 h. The immunoprecipitates were washed three times with cell lysis buffer. For co-precipitation assays, proteins were resolved on SDS-PAGE followed with western blotting or detection of biotin with Vectastain reagent (Vector). For phosphatase assays, immunoprecipitates were resuspended in phosphatase reaction buffer (25 mM Hepes pH 7.4, 50 mM NaCl, 1 mM DTT) and ⅓ of the reaction was subjected to western blotting and the remaining beads were assayed for phosphatase activity in triplicate using diFMUP (Molecular Probes) as a substrate and in the presence of serine/threonine phosphatase inhibitor cocktail (Sigma) according to manufacturers instructions. When indicate synthetic peptides were preincubated with the immunoprecipitates for 15 min prior to phosphatase assay reaction (α2 peptide […] (SEQ ID NO:6), a kind gift from Dr Heino). For phosphatase assays with purified protein, full length TCPTP was incubated in phosphatase reaction buffer in the presence or absence of TCPTP deletion mutant proteins and synthetic integrin cytoplasmic tail peptides as indicated. […] The phosphatase reaction was allowed to proceed for 10 minutes in RT and stopped with urea followed with measurement of umbelliferone fluorescence according to manufacturers instructions (Molecular Probes). Western blotting was performed with commercial antibodies raised against EGFR, EGFR(PY)845, 992 or 1068 (Cell Signalling Technologies), TCPTP (Oncogene) or tubulin (Santa Cruz Biotechnology). Specific binding of antibodies was detected with peroxidase-conjugated secondary antibodies and visualized by enhanced chemiluminescence detection.
# TCPTP [2] = target: T2, TCPTP (Homo sapiens, UniProt P17706); experiment: Phosphatase assay of immunoprecipitated TCPTP from HeLa lysates (diFMUP substrate); assay type: biochemical; settings: peptide preincubated with immunoprecipitate 15 min; FIG. 2A
# T2 construct: endogenous in cells; host or cells: HeLa
# T2 sequence (P17706 1-415): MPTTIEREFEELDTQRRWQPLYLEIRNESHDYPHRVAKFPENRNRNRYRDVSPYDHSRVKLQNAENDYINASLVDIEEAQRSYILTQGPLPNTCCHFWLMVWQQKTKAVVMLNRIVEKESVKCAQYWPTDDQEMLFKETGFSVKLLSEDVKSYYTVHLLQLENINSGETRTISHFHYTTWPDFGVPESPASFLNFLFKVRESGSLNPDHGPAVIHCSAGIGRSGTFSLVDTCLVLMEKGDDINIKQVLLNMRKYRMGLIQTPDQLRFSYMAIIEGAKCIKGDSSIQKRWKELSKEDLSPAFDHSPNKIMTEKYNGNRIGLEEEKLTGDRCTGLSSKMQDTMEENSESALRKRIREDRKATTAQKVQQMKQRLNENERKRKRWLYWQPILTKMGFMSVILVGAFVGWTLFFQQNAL
# Method: (§1) Serum starved Hela cells were either left untreated on plastic, stimulated with 10% FBS for 30 min or detached and replated on collagen type I or poly-L-lysine (10 μg/ml, Sigma) coated tissue-culture plates for 1 h. When indicated cells were surface biotinylated as described^12. Cells were either lysed in Laemmli sample buffer and fractionated on SDS-PAGE for western blotting or lysed in lysis buffer and equal amounts of protein from each sample were precleared with protein G-Sepharose and subjected to immunoprecipitation. Antibodies (anti-TCPTP, Oncogene; anti-a1, anti-a5, anti-a6, all from Chemicon; anti-SHP-2, Santa Cruz) were incubated with protein G-Sepharose and immunoprecipitation was performed at 4° C. for 2 h. The immunoprecipitates were washed three times with cell lysis buffer. For co-precipitation assays, proteins were resolved on SDS-PAGE followed with western blotting or detection of biotin with Vectastain reagent (Vector). […] The phosphatase reaction was allowed to proceed for 10 minutes in RT and stopped with urea followed with measurement of umbelliferone fluorescence according to manufacturers instructions (Molecular Probes). […] Specific binding of antibodies was detected with peroxidase-conjugated secondary antibodies and visualized by enhanced chemiluminescence detection.
# SHP-2 = target: T3, SHP-2 (Homo sapiens, UniProt Q06124); experiment: Phosphatase assay of immunoprecipitated SHP-2 from HeLa lysates (diFMUP substrate); assay type: biochemical; settings: FIG. 2A
# T3 construct: endogenous in cells; host or cells: HeLa
# T3 sequence (Q06124 1-593): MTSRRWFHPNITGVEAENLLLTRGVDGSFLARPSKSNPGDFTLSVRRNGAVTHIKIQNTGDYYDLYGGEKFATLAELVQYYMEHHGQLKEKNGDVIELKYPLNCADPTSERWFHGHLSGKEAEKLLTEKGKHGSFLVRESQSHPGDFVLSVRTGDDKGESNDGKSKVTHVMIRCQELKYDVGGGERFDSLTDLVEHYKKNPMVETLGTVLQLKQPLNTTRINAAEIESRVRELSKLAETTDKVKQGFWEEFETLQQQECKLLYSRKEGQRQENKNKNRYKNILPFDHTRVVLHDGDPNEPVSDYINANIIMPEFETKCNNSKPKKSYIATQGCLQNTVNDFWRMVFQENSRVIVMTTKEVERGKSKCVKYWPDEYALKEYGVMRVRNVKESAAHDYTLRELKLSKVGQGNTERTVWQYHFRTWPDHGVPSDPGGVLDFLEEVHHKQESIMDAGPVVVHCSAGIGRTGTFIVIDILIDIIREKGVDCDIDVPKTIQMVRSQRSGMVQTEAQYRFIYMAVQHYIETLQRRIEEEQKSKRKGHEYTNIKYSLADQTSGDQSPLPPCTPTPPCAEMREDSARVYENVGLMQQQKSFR
# Method: as §1
# HeLa cells = experiment: Microinjection of fluorescein diphosphate (FDP) and peptide into live HeLa cells, phosphatase activity; assay type: cell-based, human; settings: 1 mg/ml peptide co-injected with 1 mM FDP, 30 min; compared with α2 or PBS; FIG. 4A
# Method: Cells were plated on acid-washed glass coverslips coated with collagen type I, fibronectin or poly-L-lysine (10 μg/ml) and allowed to adhere for 1 h. Cells were washed in PBS and fixed with 4% paraformaldehyde for 10 min. For antibody staining, cells were permeabilized in PBS/0.1% Triton X-100 and washed with PBS/1% (w/v) BSA for blocking. Cells were stained with antibodies as indicated for 1 h at room temperature. Cells were then washed three times with PBS before detection with Alexa-488 or Alexa-555-conjugated anti-rabbit or anti-mouse antibodies (Molecular Probes). After washing in PBS and water, cells were mounted in Mowiol (100 mM Tris-HCl at pH 8.5, 10% (w/v) Mowiol (Calbiochem, San Diego, Calif.) and 25% (v/v) glycerol containing antifade (2.5% (w/v) 1,4-diazadicyclo-2.2.2-octane (Sigma)). Slides were examined using Zeiss inverted fluorescence microscope or a confocal laser scanning microscope (Axioplan 2 with LSM 510; Carl Zeiss Inc., Jena, Germany) equipped with 63×/1.4 Plan-Apochromat oil immersion objectives. Confocal images represent a single z-section of approximately 1.0 μm. Cytosolic microinjections with 1 mM FDP (Molecular probes) and 1 mg/ml of peptide in PBS were performed on Hela cells cultured on glass-bottom 3 cm plates. Fluorescence images from live cells were taken with identical settings and intensities were quantified using Zeiss Axioplan4 software.
# TCPTP [3] = target: T1, TCPTP; experiment: Pull-down competition: purified TCPTP with GST-α1cyt fusion protein; assay type: binding; design: purified full-length TCPTP was incubated in the lysis buffer with GST-fusion proteins; GST (N); made in house; host or cells: E. coli BL21 pLysS; settings: peptide 1 μg/ml, TCPTP 1 μg; FIG. 1F
# Method: α1cyt and a2cyt were subcloned into pGEX4T1 (Amersham Biosciences). Full length TCPTP (45 kD) and its deletion mutants were PCR-amplified from pCG-TC45 plasmid^11 and cloned into pGEX-6P-1. GST-fusion proteins were expressed in E. coli (BL21 pLysS) and purified using manufacturer's instructions (Amersham Biosciences). Fusion proteins were either used immobilized to Glutathione-sepharose, eluted with 25 mM glutathione or GST was cleaved using precision protease according to manufacturers instructions (Amersham Biosciences). For pull-down assays, Hela cells were lysed to lysis buffer (1% octylglycoside, 50 mM Tris-HCl pH 7.5, 150 mM NaCl, 1 mM MgCl2, complete protease inhibitor (Roche)), clarified with centrifugation 10 min 13000 rpm+4 C, precleared with glutathione-sepharose and incubated with immobilized GST-fusion proteins and washed 3 times with 1 ml on the same buffer. Bound proteins were resolved on SDS-PAGE and detected with western blot. Alternatively, purified full-length TCPTP was incubated in the lysis buffer with GST-fusion proteins as indicated in the presence or absence of synthetic integrin α1 cytoplasmic tail peptide (RPLKKKMEKRPLKKKMEK, (SEQ ID NO:5) Genemed Synthesis).
Compound,activation of TCPTP by small molecule compounds (TCPTP [1]),increase of catalytic activity of immunoprecipitated TCPTP (TCPTP [2]),activation of SHP-2 phosphatase (SHP-2),further results
O=C1c2c(O)ccc(O)c2C(=O)c2c(NCCNCCO)ccc(NCCNCCO)c21 [Mitoxantrone],able to activate TCPTP,,,
"synthetic α1 tail peptide: synthetic integrin α1 cytoplasmic tail peptide RPLKKKMEKRPLKKKMEK (SEQ ID NO:5), Genemed Synthesis (fusion protein)",,2.95±0.48 fold,not activated,"phosphatase activity in live HeLa cells (FDP fluorescence) (HeLa cells): induced phosphatase activity; competition with α1cyt for the association with TCPTP (TCPTP [3]): able to compete; activation of recombinant, purified TCPTP by peptide (TCPTP [1]; TCPTP 0.15 μg/ml, different peptide concentrations): highly activated"

# Further lines, with some results ahead:
activation of TCPTP by small molecule compounds (TCPTP [1]),increase of catalytic activity of immunoprecipitated TCPTP (TCPTP [2]),activation of SHP-2 phosphatase (SHP-2),Compound,further results
able to activate TCPTP,,,NCCCCNCCCN [Spermidine],
able to activate TCPTP,,,"NCCC1CCCC(CCN)N1 (centres unmarked) [MDL-26,630 trihydrochloride]",
,no effect,not activated,α2 tail peptide: synthetic α2 integrin cytoplasmic tail peptide KLGFFKRKYEKMTKNPDEIDETTELSS (SEQ ID NO:6) (fusion protein),
able to activate TCPTP,,,N.N.N.N.N.N.N.N.N.N.N.N.N.N.[Cl-].[Cl-].[Cl-].[Cl-].[Cl-].[Cl-].[O-2].[O-2].[Ru+3].[Ru+3].[Ru+4] [Ruthenium Red],
